From patent US9320812
One block for each binder: values may come before it.

Key:
human ephrin-A4 [1] = target: T1, human ephrin-A4 (human, UniProt P52798); experiment: SPR
T1 chain: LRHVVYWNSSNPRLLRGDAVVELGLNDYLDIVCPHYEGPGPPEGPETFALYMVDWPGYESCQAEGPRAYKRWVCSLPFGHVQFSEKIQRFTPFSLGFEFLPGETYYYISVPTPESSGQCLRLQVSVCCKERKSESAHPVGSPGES

human ephrin-A4 [2] = target: T1, human ephrin-A4; experiment: FACS

Kd (human ephrin-A4 [1]): 1.1 nM
B1: SC4.47 (antibody, V domains shown)
VH: EVQLQQSGPELVKPGASVKISCTASGYTFTYFYMNWVKQSQGKSLEWVGQINPNNGGTAYNHKFRGKTTLTVDKSSNTAFMELRSLTSEDSAVYFCARWVGTHYFDYWGQGTTLTVSS
VL: DIVLTQSPASLPVSLGQRATISCRASQSVSSSSYTYIHWYQQKPGQPPKLLINFASNLESGVPARFSVSGSGTDFTLNIHPVEGEDTATYYCQHSWEIPPTFGGGTKLEIK

binding result (human ephrin-A4 [2]): no binding
B2: EphB4-Fc (protein)
chain: LEETLLNTKLETADLKWVTFPQVDGQWEELSGLDEEQHSVRTYEVCDVQRAPGQAHWLRTGWVPRRGAVHVYATLRFTMLECLSLPRAGRSCKETFTVFYYESDADTATALTPAWMENPYIKVDTVAAEHLTRKRPGAEATGKVNVKTLRLGPLSKAGFYLAFQDQGACMALLSLHLFYKKCAQLTVNLTRFPETVPRELVVPVAGSCVVDAVPAPGPSPSLYCREDGQWAEQPVTGCSCAPGFEAAEGNTKCRACAQGTFKPLSGEGSCQPCPANSHSNTIGSAVCQCRVGYFRARTDPRGAPCTTPPSAPRSVVSRLNGSSLHLEWSAPLESGGREDLTYALRCRECRPGGSCAPCGGDLTFDPGPRDLVEPWVVVRGLRPDFTYTFEVTALNGVSSLATGPVPFEPVNVTTDREVPPAVSDIRVTRSSPSSLSLAWAVPRAPSGAVLDYEVKYHEKGAEGPSSVRFLKTSENRAELRGLKRGASYLVQVRARSEAGYGPFGQEHHSQTQLDESEGWREQLA
